Recovery of Luc production (end-point) in a cell-free reaction made of MazF crude extract, against the concentration of pure MazE added and recovery of deGFP production (end-point) in a cell-free reaction made of MazF crude extract, against the concentration of pure MazE added data for 1 substance are collected here from PMC2907309.

The experiment has as its target MazF (E. coli) (UniProt P0AE70).
Sequence of UniProt P0AE70 (P0AE70 whole entry): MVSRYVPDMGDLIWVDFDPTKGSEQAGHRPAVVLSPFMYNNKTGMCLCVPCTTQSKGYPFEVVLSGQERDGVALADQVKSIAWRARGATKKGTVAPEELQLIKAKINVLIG

Regarding “His-MazE (from UniProt P0AE72 1-82) (natural protein)”, the recovery of Luc production (end-point) in a cell-free reaction made of MazF crude extract, against the concentration of pure MazE added was determined as 0.6 µM and the recovery of deGFP production (end-point) in a cell-free reaction made of MazF crude extract, against the concentration of pure MazE added was found to be 0.4 µM.
